Columns and labels:
nucleoporin 214 kDa = target: T1, nucleoporin 214 kDa (human, UniProt P35658 2-2090); experiment: Y2H; INT ID 29
T1 construct: also called NUP214; cbe_3590661

[1] = target: T2, rho/rac guanine nucleotide exchange factor (GEF) 2 (human, UniProt Q92974 28-986); experiment: Y2H; INT ID 30
T2 construct: also called ARHGEF2; cbe_3694420
T2 sequence: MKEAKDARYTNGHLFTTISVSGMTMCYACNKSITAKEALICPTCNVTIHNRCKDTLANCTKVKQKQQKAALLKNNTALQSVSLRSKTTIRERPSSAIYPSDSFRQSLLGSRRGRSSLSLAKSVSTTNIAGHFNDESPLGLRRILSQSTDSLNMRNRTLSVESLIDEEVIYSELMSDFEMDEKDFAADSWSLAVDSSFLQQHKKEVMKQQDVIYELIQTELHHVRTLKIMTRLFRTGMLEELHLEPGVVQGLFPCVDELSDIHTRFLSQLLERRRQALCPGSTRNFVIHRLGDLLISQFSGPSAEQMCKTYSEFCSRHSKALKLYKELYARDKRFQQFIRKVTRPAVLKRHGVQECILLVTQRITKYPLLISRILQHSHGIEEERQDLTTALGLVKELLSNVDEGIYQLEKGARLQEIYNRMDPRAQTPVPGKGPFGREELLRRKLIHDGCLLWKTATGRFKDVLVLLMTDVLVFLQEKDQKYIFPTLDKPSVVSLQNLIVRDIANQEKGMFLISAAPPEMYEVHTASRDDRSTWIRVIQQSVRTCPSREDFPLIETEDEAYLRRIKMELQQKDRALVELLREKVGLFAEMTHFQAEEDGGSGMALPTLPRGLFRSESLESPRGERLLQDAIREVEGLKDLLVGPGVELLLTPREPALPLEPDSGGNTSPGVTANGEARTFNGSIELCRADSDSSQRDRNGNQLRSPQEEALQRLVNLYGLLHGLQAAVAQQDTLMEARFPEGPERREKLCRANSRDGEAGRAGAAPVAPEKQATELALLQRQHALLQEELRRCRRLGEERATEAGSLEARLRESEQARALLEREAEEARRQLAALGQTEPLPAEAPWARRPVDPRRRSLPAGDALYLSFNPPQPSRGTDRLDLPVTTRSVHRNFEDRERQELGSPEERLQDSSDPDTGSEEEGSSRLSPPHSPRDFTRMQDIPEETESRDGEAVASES

CD164 = target: T3, CD164 (human, UniProt Q04900 24-197); experiment: Y2H; INT ID 31
T3 construct: also called cbe_3929669

GPRK5 = target: T4, GPRK5 (human, UniProt P34947 1-590); experiment: Y2H; INT ID 27
T4 construct: also called cbe_2541164

MAPK9 = target: T5, MAPK9 (human, UniProt P45984 1-424); experiment: Y2H; INT ID 32
T5 construct: also called cbe_4175362

Measured: binding result

T1 sequence (P35658 2-2090 limits assumed): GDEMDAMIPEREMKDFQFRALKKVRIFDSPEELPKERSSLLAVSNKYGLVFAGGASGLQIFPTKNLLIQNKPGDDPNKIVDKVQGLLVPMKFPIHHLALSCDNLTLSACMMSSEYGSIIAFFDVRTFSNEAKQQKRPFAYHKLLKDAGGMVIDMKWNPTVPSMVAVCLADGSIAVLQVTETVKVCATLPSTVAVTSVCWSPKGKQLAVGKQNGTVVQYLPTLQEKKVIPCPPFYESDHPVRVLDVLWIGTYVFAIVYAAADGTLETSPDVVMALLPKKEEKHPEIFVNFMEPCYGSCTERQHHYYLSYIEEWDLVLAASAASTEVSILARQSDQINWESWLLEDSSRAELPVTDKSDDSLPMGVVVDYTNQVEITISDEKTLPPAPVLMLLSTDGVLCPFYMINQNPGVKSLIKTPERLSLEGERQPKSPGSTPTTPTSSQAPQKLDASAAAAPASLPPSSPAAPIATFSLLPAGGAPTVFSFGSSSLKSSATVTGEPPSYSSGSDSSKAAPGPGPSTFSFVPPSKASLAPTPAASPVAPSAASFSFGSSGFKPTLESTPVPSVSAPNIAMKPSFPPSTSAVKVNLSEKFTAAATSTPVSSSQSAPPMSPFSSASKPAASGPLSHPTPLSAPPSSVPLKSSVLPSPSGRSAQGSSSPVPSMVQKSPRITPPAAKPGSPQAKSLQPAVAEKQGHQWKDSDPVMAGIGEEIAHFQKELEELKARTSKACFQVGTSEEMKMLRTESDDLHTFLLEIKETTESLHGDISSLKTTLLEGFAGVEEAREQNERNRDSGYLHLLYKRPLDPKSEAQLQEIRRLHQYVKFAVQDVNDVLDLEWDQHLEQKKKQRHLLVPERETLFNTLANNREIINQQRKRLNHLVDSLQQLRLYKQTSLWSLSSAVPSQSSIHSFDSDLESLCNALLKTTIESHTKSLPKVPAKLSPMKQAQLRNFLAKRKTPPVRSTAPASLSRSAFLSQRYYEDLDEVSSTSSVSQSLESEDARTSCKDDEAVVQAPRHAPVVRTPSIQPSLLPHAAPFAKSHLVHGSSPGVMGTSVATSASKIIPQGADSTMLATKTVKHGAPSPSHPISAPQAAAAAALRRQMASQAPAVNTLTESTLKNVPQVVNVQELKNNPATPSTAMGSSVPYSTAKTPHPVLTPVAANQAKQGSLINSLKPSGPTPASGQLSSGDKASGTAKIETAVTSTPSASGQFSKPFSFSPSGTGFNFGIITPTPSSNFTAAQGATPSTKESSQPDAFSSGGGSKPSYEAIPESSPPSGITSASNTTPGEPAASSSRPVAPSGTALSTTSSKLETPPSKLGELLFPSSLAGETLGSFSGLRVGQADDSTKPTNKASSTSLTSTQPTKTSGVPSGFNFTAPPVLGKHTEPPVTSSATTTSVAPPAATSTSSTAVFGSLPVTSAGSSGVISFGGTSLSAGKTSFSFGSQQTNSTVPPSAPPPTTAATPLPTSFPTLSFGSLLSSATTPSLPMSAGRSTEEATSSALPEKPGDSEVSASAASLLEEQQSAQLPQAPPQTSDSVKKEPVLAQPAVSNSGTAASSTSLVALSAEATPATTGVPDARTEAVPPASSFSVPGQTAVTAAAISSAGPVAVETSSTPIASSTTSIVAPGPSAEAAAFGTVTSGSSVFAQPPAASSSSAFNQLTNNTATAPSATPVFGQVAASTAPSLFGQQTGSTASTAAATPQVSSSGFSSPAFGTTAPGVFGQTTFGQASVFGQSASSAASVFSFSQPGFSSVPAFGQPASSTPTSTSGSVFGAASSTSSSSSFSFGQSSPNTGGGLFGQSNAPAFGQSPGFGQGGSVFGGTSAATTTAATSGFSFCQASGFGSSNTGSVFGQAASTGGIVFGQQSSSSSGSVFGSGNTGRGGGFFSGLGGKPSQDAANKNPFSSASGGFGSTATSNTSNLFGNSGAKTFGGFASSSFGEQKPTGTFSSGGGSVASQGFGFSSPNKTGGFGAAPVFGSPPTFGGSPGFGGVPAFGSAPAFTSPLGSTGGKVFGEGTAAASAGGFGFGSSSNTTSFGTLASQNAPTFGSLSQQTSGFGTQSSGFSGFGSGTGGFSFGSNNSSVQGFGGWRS
T3 sequence (Q04900 24-197 limits assumed): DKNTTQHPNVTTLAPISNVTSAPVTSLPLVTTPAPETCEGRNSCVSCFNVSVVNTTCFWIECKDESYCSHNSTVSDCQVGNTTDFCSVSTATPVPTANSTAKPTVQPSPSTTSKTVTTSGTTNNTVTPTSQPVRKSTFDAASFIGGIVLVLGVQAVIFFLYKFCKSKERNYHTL
T4 sequence (P34947 whole entry): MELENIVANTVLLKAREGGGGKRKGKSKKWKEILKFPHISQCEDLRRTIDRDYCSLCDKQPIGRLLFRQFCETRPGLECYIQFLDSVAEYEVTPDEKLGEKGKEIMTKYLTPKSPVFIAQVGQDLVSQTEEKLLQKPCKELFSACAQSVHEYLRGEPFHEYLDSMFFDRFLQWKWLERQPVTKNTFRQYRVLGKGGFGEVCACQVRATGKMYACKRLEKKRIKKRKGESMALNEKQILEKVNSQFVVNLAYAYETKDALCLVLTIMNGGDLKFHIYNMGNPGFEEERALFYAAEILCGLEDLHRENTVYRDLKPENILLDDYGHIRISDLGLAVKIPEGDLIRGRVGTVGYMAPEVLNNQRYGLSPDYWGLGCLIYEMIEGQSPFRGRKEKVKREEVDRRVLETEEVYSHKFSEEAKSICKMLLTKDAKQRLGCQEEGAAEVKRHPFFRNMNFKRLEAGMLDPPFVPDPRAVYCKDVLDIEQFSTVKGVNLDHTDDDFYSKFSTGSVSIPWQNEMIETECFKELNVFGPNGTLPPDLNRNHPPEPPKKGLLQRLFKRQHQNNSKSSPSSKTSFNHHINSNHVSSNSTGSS

B1: Human papillomavirus 11 E6 (other)
chain: MESKDASTSATSIDQLCKTFNLSLHTLQIQCVFCRNALTTAEIYAYAYKNLKVVWRDNFPFAACACCLELQGKINQYRHFNYAAYAPTVEEETNEDILKVLIRCYLCHKPLCEIEKLKHILGKARFIKLNNQWKGRCLHCWTTCMEDLLP
notes: also called HPV 11 E6; cbe_250808
binds: all assays above
